Biological target: V5-tagged LvpIgR expressed in HEK293T cells (Litopenaeus vannamei)

Substance: GST-tagged VP24 of WSSV (natural protein)
- WSSV infection rate of HEK293T cells transfected with LvpIgR, FITC-labelled WSSV preincubated with rPEN2; control preincubated with rTrx: 49.08%: 33.9%

Source: publication PMC7048182
